Positions count from the first letter of the chain named. Values belong to the binder of their own block, whether it stands above or below them.
What was measured:
[1] = target: T1, human transmembrane protein 180 (TMEM-180) (human, UniProt Q14CX5 1-517); assay: flow cytometry on cancer cell lines, hybridoma supernatant
T1 construct: Membrane protein; also called TMET-180
T1 sequence: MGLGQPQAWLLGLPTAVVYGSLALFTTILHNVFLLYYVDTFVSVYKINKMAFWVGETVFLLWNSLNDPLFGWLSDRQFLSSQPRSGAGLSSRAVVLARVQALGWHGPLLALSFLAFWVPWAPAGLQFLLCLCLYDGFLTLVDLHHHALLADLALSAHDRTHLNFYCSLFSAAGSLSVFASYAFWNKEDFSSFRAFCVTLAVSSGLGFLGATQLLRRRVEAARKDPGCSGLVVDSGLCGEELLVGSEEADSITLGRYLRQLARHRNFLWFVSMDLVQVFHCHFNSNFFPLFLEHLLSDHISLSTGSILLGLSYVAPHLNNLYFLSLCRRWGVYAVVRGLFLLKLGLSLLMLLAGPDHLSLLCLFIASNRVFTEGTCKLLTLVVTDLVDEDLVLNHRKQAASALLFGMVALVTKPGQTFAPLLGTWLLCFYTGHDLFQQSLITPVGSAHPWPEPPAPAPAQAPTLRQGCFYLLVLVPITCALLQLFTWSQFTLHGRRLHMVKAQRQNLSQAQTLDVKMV
Description: The plate was centrifuged for 3 minutes at 440×g and 4° C. followed by removing the supernatant, adding antibody-producing hybridoma culture supernatant or antibody solution to the cell pellet at 50 μL/well and suspending therein. After allowing to react for 45 minutes on ice, the plate was washed three times with a mixture of 0.1% BSA, 2 mM EDTA and PBS at 200 μL/well. The supernatant was removed and secondary antibody was added to the cell pellet at 50 μL/well followed by suspending the cells therein. AlexaFluor 647 goat anti-rat IgG (H-L) (Life Technologies Corporation) was used for the secondary antibody after diluting 400-fold with a mixture of 0.1% BSA, 2 mM EDTA and PBS. After allowing to react for 45 minutes on ice, the plate was washed three times with a mixture of 0.1% BSA, 2 mM EDTA and PBS at 200 μL/well. After removing the supernatant, 50 ng/mL of propidium iodide, 0.1% BSA, 2 mM EDTA and PBS were added to the cell pellet at 250 μL/well followed by suspending therein. The cells stained in this manner were measured using a flow cytometer such as the Guava easyCyte 8HT (Merck Millipore Corporation) followed by analysis of the resulting data using FlowJO (Tomy Digital Biology Co., Ltd.). FACS analysis was carried out using colon cancer, brain tumor and hematologic cancer.
(§1) Flow cytometry was carried out in accordance with the procedure described in the above-mentioned section 3. […] The supernatant of a culture of hybridoma producing rat IgM antibody clone 365 was used as a negative control after similarly diluting to 1 μg/mL. […] A mixture of RPMI and 10% FBS was used to dilute each of the antibodies. Furthermore, antibody concentration in the hybridoma culture supernatant was measured by rat IgM-specific ELISA (Bethyl Laboratories).

[2] = target: T1, human transmembrane protein 180 …; assay: flow cytometry, DLD-1 parent line against TMEM-180 knockout line (considerable left shift in the knockout)
Description: After removing the supernatant, 50 ng/mL of propidium iodide, 0.1% BSA, 2 mM EDTA and PBS were added to the cell pellet at 250 μL/well followed by suspending therein. The cells stained in this manner were measured using a flow cytometer such as the Guava easyCyte 8HT (Merck Millipore Corporation) followed by analysis of the resulting data using FlowJO (Tomy Digital Biology Co., Ltd.). FACS analysis was carried out using colon cancer, brain tumor and hematologic cancer.
as §1

[3] = target: T1, human transmembrane protein 180 …; assay: FACS on cancer-derived cell lines (Table 23)

binding result [1]: binds
B1: rat IgM antibody clone 98 (antibody, V domains shown)
VH: QVQLKESGPGLVQPSQTLSLTCTVSGFSLTRYNVHWVRQPTGKGLEWMGVIWTGGSTDYNSALKSRLSISRDTSKSQVFLKMNSLQTEDIATYYCARDLGYWGQGVMVTVSS
VL: DIVMTQTPLSLSVAIGQSASISCKSSQSLKYRDGKTYLNWVFQSPGQSPKRLIYQVSKLDSGVPDRFSGTGSETDFTLKISRVEAEDLGVYYCCQGSYSPHTFGAGTKLELK
notes: Rat IgM from a hybridoma; also called 98 antibody; IgM 98

binding result [1]: binds
B3: rat IgM antibody clone 101 (antibody, V domains shown)
VH: QVQLKETGPGLVQPTQTLSITCTVSGFSLTSYYMQWVRQTPGKGLEWMGFIRSGGSTEYNSEFKSRLSISRDTSKNQVFLKMNSLKTEDTGVYYCARAFYGGYYFDYWGQGVMVTVSS
VL: DIVMTQSPTSISISVGERVTMNCKASQNVGSNVDWYQQKTGQSPKLLIYKASNRYTGVPDRFTGSGSGTDFTFTISNMQAEDLAVYYCMQSNTKYTFGAGTKLELK
notes: Rat IgM

The next lines start with the binder.

B2: rat-human chimeric antibody clone 98 (antibody, IgG1, V domains shown)
VH: B1 VH
VL: B1 VL
notes: Clone 98 variable regions on human constant regions (IgG1), expressed in 293T cells; also called human chimeric IgG1 antibody; human chimeric IgG antibody
binding result [2]: binds

B4: anti-TMEM-180 antibody clone 1052 (antibody, V domains shown)
VH: QVQLKESGPGLMQPSETLSLTCTVSGFSLTSNGVGWVRQPLGKGLVWMGTIWTGGGTNYNSGVQSRLSISRDTSKSQVFLKMNSLQPEDTGTYYCAREYMGFDYWGQGVMVTVSS
VL: NTVMTQSPTSMFTSVGDRVTMSCKASQNVGINVGWYQQKTGQSPKRLIYWASNRDTGVPDRFTGSGSGTDFTLTISNMQAEDPAIYYCLQHNSYPRTFGGGTKLELK
notes: Rat IgM; also called 1052 antibody
binding result [3]: binds

B5: anti-TMEM-180 antibody clone 1105 (antibody, V domains shown)
VH: B4 VH with T53S, G62A, S70T, Y99E, M100K, D103A, V109T, M110L
VL: B4 VL with T2I, F12S, T97A, K107R
notes: Rat IgM; also called 1105 antibody
binding result [3]: binds

B6: anti-TMEM-180 antibody clone 212 (antibody, V domains shown)
VH: EVQLVESGGGLVQPGNSLKLSCAASGFTFSDYAMAWVRQSPKKGLEWVATIIYDGSSTYYRDSVKGRFTISRDNAKSTLYLQMDSLRSEDTATYYCATHWYWYFDFWGPGTMVTVSS
VL: DIQMTQSPASLSASLGETVSIECLASEGISNDLAWYQQKSGKSPQLLIYAASRLQDGVPSRFSGSGSGTRYSLKISGMQPEDEADYFCQQSYKYPLTFGSGTKLEIK
notes: Rat IgM
binding result [1]: binds
